Among the data in PMC10593786 are maximal actin-activated ATPase rate of FLMyo6 (T888D.Q892E.V903D) upon GIPC1 addition (loss of gating), stoichiometry N (CaM per heavy chain) and decrease in maximal actin-activated ATPase activity per Head of FLMyo6 (WT, no-insert isoform) upon addition of GIPC1, compared to monomeric MD^Ins2 (gating in a dimer) values, retold here.

Test [1] deals with FLMyo6 (T888D.Q892E.V903D) (human) (UniProt Q9UM54).
The target of test [2] is Jo-Myo6-In heavy chain (Streptococcus pneumoniae | human). The test is described as follows: co-purification, SDS-PAGE; CaM co-expressed with Jo-Myo6-In in Sf9 cells, purified by the Flag tag of the heavy chain, read by SDS-PAGE.
The target of test [3] is full-length wild-type Myo6, small insert isoform (FLMyo6 SI (WT)) (human) (UniProt Q9UM54).

As to “FLMyo6 (T888D.Q892E.V903D) (from UniProt Q9UM54-5 1-1253; P0DP23 1-149) (complex)”, the maximal actin-activated ATPase rate of FLMyo6 (T888D.Q892E.V903D) upon GIPC1 addition (loss of gating) in test [1] was determined as 2 fold.
In test [2], “calmodulin (CaM) (from UniProt P0DP23 1-149) (natural protein)” displayed a stoichiometry N (CaM per heavy chain) of 2.
In the case of “full-length wild-type Myo6, small insert isoform (FLMyo6 SI (WT)) (from UniProt Q9UM54-2 1-1262; P0DP23 1-149) (complex)”, the decrease in maximal actin-activated ATPase activity per Head of FLMyo6 (WT, no-insert isoform) upon addition of GIPC1, compared to monomeric MD^Ins2 (gating in a dimer) in test [3] came out at 50%.
